Biological target: the molecule itself
Assay: ELISA; ELISA-based time-resolved fluorescence spectroscopy assay; unlabeled Nectin-2-ED-hFc immobilised on a Delfia Clear Strip Plate, Eu-labeled Nectin-2-ED-hFc at 3.2 ug/mL added together with anti-Nectin-2 mAb at 30 ug/mL or a human IgG control, 1.5 h at room temperature

B1: Nectin-2-ED-hFc (Fc fusion, human, UniProt Q92692 32-361, looked up)
chain: QDVRVQVLPEVRGQLGGTVELPCHLLPPVPGLYISLVTWQRPDAPANHQNVAAFHPKMGPSFPSPKPGSERLSFVSAKQSTGQDTEAELQDATLALHGLTVEDEGNYTCEFATFPKGSVRGMTWLRVIAKPKNQAEAQKVTFSQDPTTVALCISKEGRPPARISWLSSLDWEAKETQVSGTLAGTVTVTSRFTLVPSGRADGVTVTCKVEHESFEEPALIPVTLSVRYPPEVSISGYDDNWYLGRTDATLSCDVRSNPEPTGYDWSTTSGTFPTSAVAQGSQLVIHAVDSLFNTTFVCTVTNAVGMGRAEQVIFVRETPNTAGAGATGGI
modifications: europium N1 ITC chelate (only on the Eu-labeled copy added in solution in the Nectin-2-Nectin-2 assay)
notes: signal peptide in the construct; Nectin-2, cloned from cDNA of the A549 human lung cancer cell line, extracellular domain a.a; 1-361; Plasmid pcDNA3.1-Nectin-2-ED-hFc; In the Nectin-2-Nectin-2 assay one copy was unlabeled on the plate and the other Eu-labeled in solution; also called Nectin-2 extracellular domain (a.a. 1-361) fused to the human IgG1 Fc region; source: FreeStyle 293 F cells, …
  binding result: binds

— article PMC3698035, “Nectin-2 is a potential target for antibody therapy of breast and ovarian cancers” (Molecular Cancer, 2013)
